# Results reported in US20220002363A1, “COMPOSITIONS AND METHODS FOR TREATING PULMONARY DISEASE” (United States Government As Represented By The Department …, priority 2020, published 2022).
# Entries after “also recorded” stand apart in the source; their conditions may differ.
# B1: mut-sFasL: mutant sFasL molecule in which 8 charged amino acids in the 26 amino acid stalk region were changed to alanine (protein)
# chain: QLFALQAALAALAASTSQMATASSLAKQIGHPSPPPEKKELRKVAHLTGKSNSRSMPLEWEDTYGIVLLSGVKYKKGGLVINETGLYFVYSKVYFRGQSCNNLPLSHKVYMRNSKYPQDLVMMEGKMMSYCTTGQMWARSSYLGAVFNLTSADHLYVNVSELSLVNFEESQTFFGLYKL
# System: LPS-treated C57BL/6 mice
# Experiment: Oropharyngeal LPS lung injury model in C57BL/6 mice treated with mut-sFasL
# Format: in vivo, mouse
# Conditions: for pro-injury or pro-inflammatory effects: normal lungs / administered 24 hours after intratracheal LPS, any dose
# Procedure: FIGS. 5A-E show the effects of mut-sFasL on markers of lung inflammation in LPS-treated mice. C57BL/6 mice received oropharyngeal instillations of either PBS or LPS, 2.5 μg/mL. Four hours later some of the mice received oropharyngeal instillations of PBS or mut-sFasL at concentrations of 10 and 100 ng/g and were euthanized 24 hours after the initial LPS/PBS instillations (“early” group). Other mice received the PBS or mut-sFasL (same dose range) 24 hours after LPS/PBS and were euthanized 48 hours after the original LPS instillation (“late” group). N=6 for the groups. In the “late” group, treatment with 100 ng/g mut-sFasL reduced BAL total cells (FIG. 5A), lung homogenate MPO activity (FIG. 5B), and the BAL concentrations of TNF-α, MIP-1β and MCP-1 (FIGS. 5C-E). Data were analyzed by 2-way ANOVA with Dunnet's post hoc analysis; comparisons made to 0 ng/mL for each condition. Data are reported as box plots, in which the box depicts the 25th to 75th percentiles and the lines the min to max range. *=P<0.05; **=P<0.01, ***P<0.001.
# FIGS. 6A-D show the effects of mut-sFasL in LPS treated mice. C57BL/6 mice received oropharyngeal instillations of either PBS, or LPS, 2.5 μg/mL. Four hours later some of the mice received oropharyngeal instillations of PBS or mut-sFasL at concentrations of 10 and 100 ng/g and were euthanized 24 hours after the initial LPS/PBS instillations (“early” group). Other mice received the PBS or mut-sFasL (same dose range) 24 hours after LPS/PBS and were euthanized 48 hours after the original LPS instillation (“late” group). N=6 for all groups. […] The administration of mut-sFasL had no effect total BAL protein (FIG. 6B), BAL IgM (FIG. 6C) or total lung homogenate caspase 3/7 activity (FIG. 6D). Data are reported as box plots, in which the box depicts the 25th to 75th percentiles and the lines the min to max range. Data were analyzed by 2-way ANOVA with Dunnett's post hoc analysis; comparisons were made to 0 ng/mL for each condition.
# Animal studies. Mice were housed in conventional cages with ad libitum access to tap water and standard chow, in humidity-controlled (50%) and temperature-controlled (22° C.-23° C.) rooms with 12 hours/12 hours light/dark cycles. In the morning, male C57BL/6J mice (Jackson Laboratories, Bar Harbor Me.) weighing […] were anesthetized with 4% inhaled isoflurane and randomized to treatment for one oropharyngeal instillations of either PBS, or LPS, 2.5 μg/mL (Sigma-Aldrich, St. Louis Mo.) (Time=0 hr). The PBS group was instilled first to avoid cross-contamination with LPS. The mice were allowed to recover from anesthesia, given full access to food and water. […] Some of the mice received oropharyngeal instillations of mut-sFasL at 4 hr and were euthanized at 24 hr (“early” group). Other mice received oropharyngeal mut-sFasL at 24 hours and were euthanized at 48 hr (“late” group). In both cases, mut-sFasL doses were 0, 30 and 100 ng/mL. The number of mice used per group was 6, and the total number of mice was 54.
# Following instillations, the mice were monitored for signs of discomfort every 15 minutes during the first hour, and then every four hours during daytime. The primary monitoring parameters were loss of prone posture, loss of movement with mild physical stimulation, weight loss of >20% (weight was measured once per day) and severe respiratory distress. Secondary monitoring parameters included ruffled fur, nasal or ocular discharge and an abnormal respiratory pattern. The presence of one major parameter or two minor parameters was considered an indication for euthanasia, but no mice met these criteria. […]
# [1] = LPS, 24 hr (early group), mut-sFasL 30
# [2] = LPS, 24 hr (early group), mut-sFasL 100
# [3] = LPS, 48 hr (late group), mut-sFasL 30
# [4] = LPS, 48 hr (late group), mut-sFasL 100
molecule,measurement,setting,value
B1,BAL cytokine concentration IL-1β,[1],14.3 ± 10.6
same,BAL cytokine concentration KC,[1],118.4 ± 43.7
same,BAL cytokine concentration MIP-1α,[1],47.9 ± 10.6
same,BAL cytokine concentration MIP-2,[1],78.0 ± 28.1
same,BAL cytokine concentration IL-1β,[2],18.6 ± 5.5
same,BAL cytokine concentration KC,[2],154.4 ± 94.3
same,BAL cytokine concentration MIP-1α,[2],85.3 ± 20.0
same,BAL cytokine concentration MIP-2,[2],124.1 ± 29.1
same,BAL cytokine concentration IL-1β,[3],37.8 ± 23.3
same,BAL cytokine concentration KC,[3],113.2 ± 55.8
same,BAL cytokine concentration MIP-1α,[3],154.5 ± 78.7
same,BAL cytokine concentration MIP-2,[3],146.7 ± 72.7
same,BAL cytokine concentration IL-1β,[4],44.5 ± 23.1
same,BAL cytokine concentration KC,[4],136.9 ± 51.9
same,BAL cytokine concentration MIP-1α,[4],153.9 ± 42.4
same,BAL cytokine concentration MIP-2,[4],135.7 ± 29.9
same,BAL IgM,LPS-induced increase,did not affect; also recorded: had no effect
same,BAL total protein,LPS-induced increase,did not affect; also recorded: had no effect
same,lung homogenate caspase-3/7 activity,LPS-induced increase,did not affect; also recorded: had no effect
same,BAL IL-1β (in words),LPS-treated mice,increase
same,BAL KC (in words),LPS-treated mice,not affected
same,BAL MIP-1α (in words),LPS-treated mice,increase
same,BAL MIP-2 (in words),LPS-treated mice,not affected
same,weight loss,"LPS-treated mice, percent change from initial weight",not affected; also recorded: Weight loss was similar regardless of treatment
same,BAL cytokine concentration IL-1β,"PBS group, mut-sFasL 30",0.2 ± 0.0
same,BAL cytokine concentration KC,"PBS group, mut-sFasL 30",1.2 ± 0.6
same,BAL cytokine concentration MIP-1α,"PBS group, mut-sFasL 30",0.08 ± 0.03
same,BAL cytokine concentration MIP-2,"PBS group, mut-sFasL 30",0.1 ± 0.0
same,BAL cytokine concentration IL-1β,"PBS group, mut-sFasL 100",0.2 ± 0.1
same,BAL cytokine concentration KC,"PBS group, mut-sFasL 100",1.9 ± 0.9
same,BAL cytokine concentration MIP-1α,"PBS group, mut-sFasL 100",0.29 ± 0.28
same,BAL cytokine concentration MIP-2,"PBS group, mut-sFasL 100",2.3 ± 2.8
same,lung apoptosis or permeability measurements,PBS-treated mice,did not lead to an increase in lung apoptosis or permeability measurements
same,effect of early administration,"early group (mut-sFasL 4 hours after LPS, euthanized 24 h)",no measurable effect
same,BAL concentration of MCP-1,late group,decrease; also recorded: reduced
same,BAL concentration of MIP-1β,late group,decrease; also recorded: reduced
same,BAL concentration of TNF-α,late group,decrease; also recorded: reduced
same,BAL total cell counts,"late group (mut-sFasL 24 h after LPS, euthanized 48 h), 100 ng/mL, 100 ng/g",decreased; also recorded: reduced
same,total lung (homogenate) MPO activity,"late group, doses of 30 and 100 ng/mL, 100 ng/g",significantly decreased; also recorded: reduced
same,pro-injury or pro-inflammatory effects,,did not have important pro-injury or pro-inflammatory effects at any dose
same,pro-injury or pro-inflammatory effects,listed as sFasL with mutated stalk region,not injurious in normal lungs
